# According to patent US20230138930A1 (FUDAN UNIVERSITY, published 2023):
# Residue numbers refer to the chain shown, from its start.
# B1: TF-mAb-H30 (antibody, V domains shown)
# VH: EVQLVQSGAEVKKPGESLKISCKGSGYSFTSYWMNWVRQMPGKGLEWMGMIYPADSETRLNQKFKDKATLSVDKSISTAYLQWSSLKASDTAMYYCAREDYGSSDYWGQGTTVTVSS
# VL: EIVLTQSPATLSLSPGERATLSCSASSSVSYMNWYQQKPGQAPRIWIYGISNLASGIPARFSGSGSGTDFTLTISSLEPEDFAVYYCQQKSSFPWTFGGGTKVEIK
# B2: TF-mAb-H38 (antibody, V domains shown)
# VH: QVQLVQSGSELKKPGASVKVSCKASGYSFISYWMNWVRQAPGQGLEWIGMIYPADSETRLNQKFKDRAVLSVDKSVSTAYLQICSLKAEDTAVYYCAREDYGSSDYWGQGTTVTVSS
# VL: B1 VL with A42S, I57V
# B3: TF-mAb-H40 (antibody, V domains shown)
# VH: B1 VH
# VL: DIQLTQSPSSLSASVGDRVTITCSASSSVSYMNWYQQKPGKSPKIWIYGISNLASGVPSRFSGSGSGTDFTLTISSLQPEDFATYYCQQKSSFPWTFGGGTKVEIK
# B4: TF-mAb-H32 (antibody, V domains shown)
# VH: QVQLVQSGAEVKKPGASVKVSCKASGYSFISYWMNWVRQAPGQGLEWIGMIYPADSETRLNQKFKDRATLTVDKSTSTAYMELSSLRSEDTAVYYCAREDYGSSDYWGQGTTVTVSS
# VL: B1 VL
# B5: TF-mAb-H45 (antibody, V domains shown)
# VH: B1 VH
# VL: EIVLTQSPDFQSVTPKEKVTITCSASSSVSYMNWYQQKPDQSPKIWIYGISNLASGVPSRFSGSGSGTDFTLTINSLEAEDAATYYCQQKSSFPWTFGGGTKVEIK
# B6: TF-mAb-H39 (antibody, V domains shown)
# VH: B1 VH with K67Q
# VL: B3 VL
# B7: TF-mAb-H31 (antibody, V domains shown)
# VH: B1 VH with R38K
# VL: B1 VL
# B8: TF-mAb-H37 (antibody, V domains shown)
# VH: B4 VH
# VL: B1 VL with A42S, I57V
# B9: TF-mAb-H34 (antibody, V domains shown)
# VH: B1 VH with K67Q
# VL: B1 VL with A42S, I57V
# B10: TF-mAb-H35 (antibody, V domains shown)
# VH: B1 VH
# VL: B1 VL with A42S, I57V
# B11: TF-mAb-H29 (antibody, V domains shown)
# VH: B1 VH with K67Q
# VL: B1 VL
# B12: TF-mAb-H46 (antibody, V domains shown)
# VH: B1 VH with R38K
# VL: B5 VL
# B13: TF-mAb-H44 (antibody, V domains shown)
# VH: B1 VH with K67Q
# VL: B5 VL
# B14: TF-mAb-H36 (antibody, V domains shown)
# VH: B1 VH with R38K
# VL: B1 VL with A42S, I57V
# B15: TF-mAb-H33 (antibody, V domains shown)
# VH: B2 VH
# VL: B1 VL
# B16: TF-mAb-H41 (antibody, V domains shown)
# VH: B1 VH with R38K
# VL: B3 VL
# B17: TF-mAb-Ch (antibody, V domains shown)
# VH: QVQLQQPGAELVRPGASVKLSCKASGYSFISYWMNWVKQRPGQGLEWIGMIYPADSETRLNQKFKDKATLTVDKSSSTAYMQLSSPTSEDSAVYYCAREDYGSSDYWGQGTTLTVSS
# VL: EILLTQSPAIIAASPGEKVTITCSASSSVSYMNWYLQKPGSSPKIWIYGISNLASGVPARFSGSGSGTSFSFTINSMETEDVATYYCQQKSSFPWTFGGGTKLEIK
# notes: Variable regions of TF-mAb-SC1 cloned onto human IgG1 heavy chain constant region and human kappa constant region; also called human-mouse chimeric antibody
# B18: TF-mAb-H42 (antibody, V domains shown)
# VH: B4 VH
# VL: B3 VL
# B19: TF-mAb-H47 (antibody, V domains shown)
# VH: B4 VH
# VL: B5 VL
# B20: TF-mAb-H48 (antibody, V domains shown)
# VH: B2 VH
# VL: B5 VL
# B21: TF-mAb-H43 (antibody, V domains shown)
# VH: B2 VH
# VL: B3 VL
# Target: T1, human TF on cells (MDA-MB-231, BxPC-3 and other tumor cells with high TF expression) (human, UniProt P13726 33-295)
# T1 construct: whole, on cells; Endogenous expression on tumor cell lines; also called cell surface TF
# Experiment: flow cytometry on MDA-MB-231 cells, antibody at 10 µg/mL
row,MFI [MFI],Binder
1,3240,B1
2,3150,B2
3,3310,B3
4,3010,B4
5,3480,B5
6,3380,B6
7,3470,B7
8,2990,B8
9,3270,B9
10,3020,B10
11,3580,B11
12,3410,B12
13,3430,B13
14,3090,B14
15,2840,B15
16,3610,B16
17,3540,B17
18,3350,B18
19,3150,B19
20,2900,B20
21,3300,B21

# Target: T1, human TF on cells (MDA-MB-231, BxPC-3 …)
# Experiment: flow cytometry on MDA-MB-231 cells, antibody at 1 µg/mL
row,MFI [MFI],Binder
1,2930,B1
2,2870,B2
3,3180,B3
4,2400,B4
5,3100,B5
6,3180,B6
7,3080,B7
8,2460,B8
9,2460,B9
10,2930,B10
11,2960,B11
12,3120,B12
13,3200,B13
14,3040,B14
15,2420,B15
16,3000,B16
17,3370,B17
18,2970,B18
19,3000,B19
20,2610,B20
21,2820,B21
